We go through one substance from patent US20170360796A1, “BTK INHIBITOR COMBINATIONS AND DOSING REGIMEN” (PHARMACYCLICS LLC, priority 2014, published 2017).

For series [1], the system named is patients with relapsed/refractory CLL and related diseases. In words: Phase 1b/2 study of ibrutinib combined with ofatumumab (NCT01217749): efficacy. Type of series: in vivo, human. As to conditions: group 3, ofatumumab lead-in before initiating ibrutinib.
From the text: Key eligibility criteria also included failure of ≧2 prior therapies including a nucleoside analogue (unless contraindicated); ≧10% expression of CD20 on CLL/SLL cells by flow cytometry; ECOG performance status ≦2; and adequate end-organ function.
This phase 1 b/2, single-center, open-label, sequential-group study was approved by the institutional review board and conducted in accordance with the principles of the Declaration of Helsinki and the International Conference on Harmonization Guidelines for Good Clinical Practice.
In series [2] the test system is patients with relapsed/refractory CLL. As to conditions: single agent; cited from earlier work.
For series [3], the system named is B-cell lines including CLL cells. Conditions: compared with rituximab; cited from earlier work.

As to “ofatumumab: anti-CD20 monoclonal antibody that binds to an epitope distinct from that for rituximab”, the “patients who progressed (PD) on ofatumumab monotherapy” value in series [1] came out at 17%. Besides, in series [2], the “Major bleeding events ≧ grade 3” value is on record as 1.6%; the “peripheral sensory neuropathy (grade 1 and 2)” value is 13%. Further, the “complement-dependent cytotoxicity and NK-cell ADCC” value in series [3] is reported as “more potent”.
